Laboratory results: article PMC12905490, “Identification and functional characterization of two CXCL17 paralogs from zebrafish” (Biochemical Journal, 2026)
Blank lines part the entries; values can stand above or below the molecule they belong to.

Legend:
[1] = target: sLgBiT-Dr-GPR25 (zebrafish (Danio rerio)); experiment: split reporter (BiFC, NanoBiT); NanoBiT-based competition binding: constant 6 × His-SmBiT-Dr-CXCL17-like tracer and varied competitors on living HEK293T cells expressing sLgBiT-Dr-GPR25; serum-free DMEM, 0.1% BSA, 0.01% Tween-20, room temperature ~1 h
[2] = target: T1, sLgBiT-Dr-GPR25 (zebrafish (Danio rerio), UniProt A0AC58GT18 1-377); experiment: split reporter (BiFC, NanoBiT); NanoBiT-based homogeneous saturation binding as before, but sLgBiT-Dr-GPR25 coexpressed with human TPST1 and TPST2 in HEK293T cells; serum-free DMEM, 0.1% BSA, 0.01% Tween-20, room temperature ~1 h; details: one partner purified
T1 construct: G protein-coupled receptor 25 (GPR25), zebrafish (Danio rerio); In one experiment it was coexpressed with human TPST1 and TPST2; sulfation of the N-terminal tyrosines is only called potential; The chemotaxis assays used untagged Dr-GPR25 (PB-TRE/Dr-GPR25); also called N-terminally secretory LgBiT-fused Dr-GPR25; zebrafish GPR25; source: HEK293T, transfected (PB-TRE/sLgBiT-Dr-GPR25), Dox-induced, …
T1 sequence (looked up): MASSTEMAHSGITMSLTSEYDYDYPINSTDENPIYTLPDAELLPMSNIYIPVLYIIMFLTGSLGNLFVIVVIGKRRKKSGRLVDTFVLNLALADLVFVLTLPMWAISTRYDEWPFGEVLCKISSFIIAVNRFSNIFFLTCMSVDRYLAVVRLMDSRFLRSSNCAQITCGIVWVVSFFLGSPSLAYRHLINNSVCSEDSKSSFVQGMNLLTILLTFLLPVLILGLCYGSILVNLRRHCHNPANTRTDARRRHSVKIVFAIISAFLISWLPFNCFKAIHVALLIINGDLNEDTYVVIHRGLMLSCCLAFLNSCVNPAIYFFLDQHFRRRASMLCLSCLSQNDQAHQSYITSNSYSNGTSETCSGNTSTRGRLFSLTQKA

[3] = target: T1, sLgBiT-Dr-GPR25; experiment: split reporter (BiFC, NanoBiT); NanoBiT-based homogeneous saturation binding: varied 6 × His-SmBiT-Dr-CXCL17-like on living HEK293T cells overexpressing sLgBiT-Dr-GPR25, without coexpression of TPST1 and TPST2; serum-free DMEM, 0.1% BSA, 0.01% Tween-20, room temperature ~1 h; non-specific binding with 1.0 μM unlabeled 6 × His-Dr-CXCL17-like; details: one partner purified
[4] = target: T1, sLgBiT-Dr-GPR25; experiment: split reporter (BiFC, NanoBiT); NanoBiT-based competition binding: constant 6 × His-SmBiT-Dr-CXCL17-like tracer and varied competitors on living HEK293T cells expressing sLgBiT-Dr-GPR25; serum-free DMEM, 0.1% BSA, 0.01% Tween-20, room temperature ~1 h; details: one partner purified

Molecule: 6 × His-Dr-CXCL17 (ligand)
IC50 [1]: 380 nM

B2: 6 × His-Dr-CXCL17-like (ligand, zebrafish (Danio rerio), UniProt A0AB13AB19 26-95, looked up)
chain: QRRSMKQSAVCGCKLYPDKGLKCTKRPNPKSRDEYYEILKCICRDTQIFSKSSRKEYLKRCNKFYPSLPL
notes: Dr-CXCL17-like, zebrafish (Danio rerio, Tübingen strain), mature peptide of 70 amino acids (residues 26-95 of the 95-residue precursor; predicted signal peptide of 25 residues left out); also called zebrafish CXCL17-like; A0AB13AB19; not shown: His6, N-terminal, kept
IC50 [4]: ~13 nM

Next, values leading:

Kd [2]: 7.1 ± 0.9 nM
Kd [3]: 7.5 nM
B1: 6 × His-SmBiT-Dr-CXCL17-like (ligand, zebrafish (Danio rerio), UniProt A0AB13AB19 26-95, looked up)
chain: QRRSMKQSAVCGCKLYPDKGLKCTKRPNPKSRDEYYEILKCICRDTQIFSKSSRKEYLKRCNKFYPSLPL
notes: Dr-CXCL17-like, zebrafish (Danio rerio, Tübingen strain), mature peptide of 70 amino acids (residues 26-95 of the 95-residue precursor; predicted signal peptide of 25 residues left out); also called tracer; SmBiT-tagged tracer; not shown: His6, N-terminal, kept; SmBiT, N-terminal, kept

IC50 [4]: ~230 nM
B3: 6 × His-Hs-CXCL17 (ligand, human, UniProt Q6UXB2 22-119, looked up)
chain: SSLNPGVARGHRDRGQASRRWLQEGGQECECKDWFLRAPRRKFMTVSGLPKKQCPCDHFKGNVKKTRHQRHHRKPNKHSRACQQFLKQCQLRSFALPL
notes: C-X-C motif chemokine ligand 17 (CXCL17), human; likely the mature peptide with an N-terminal 6 × His tag, as for the zebrafish proteins (surmised); also called Recombinant human CXCL17; source: recombinant
